Common to all, as to experiment: Kinetic parameters for hydrolysis of internally quenched fluorogenic peptides by secPHEX
Assay type in all cases: biochemical, human
What all share (conditions): other: 37° C., 10 mM Bis-Tris buffer pH 5.5, 150 mM NaCl

Substrate in series [1]: C[C@H](NC(=O)[C@H](CO)NC(=O)c1ccccc1N)C(=O)N[C@@H](CCC(=O)O)C(=O)N[C@@H](CC(=O)O)C(=O)N[C@@H](CC(N)=O)C(=O)N[C@@H](CO)C(=O)N1CCC[C@H]1C(=O)N[C@@H](CCC(N)=O)C(=O)NCCNc1ccc([N+](=O)[O-])cc1[N+](=O)[O-]
The protocol:
(§1) The human recombinant secPHEX was obtained following the procedure previously described (17, WO 00/50580). Purified secPHEX concentration was determined using the Bradford method (DC protein assay kit; Bio-Rad, Mississauga, ON, Canada). Membrane-bound recombinant human PHEX was expressed in LLC-PK1 cells (17, (WO 00/50580)) and membranes were prepared essentially as described by Guo et al. (34). Briefly, transfected cells resuspended in lysis buffer (150 mM NaCl, 20 mM Tris.HCl, pH 7.6) were disrupted by sonication. Cell debris were removed by centrifugation at 300 g for 15 min at 4 °C. Membranes were collected by centrifugation at 30,000 g for 50 min and solubilized for 2h with 1% n-dodecyl-β-D-maltoside in lysis buffer. Insoluble material was pelleted by centrifugation at 10,000 g for 15 min and protein concentrations of the supernatant determined using the Bradford method described above. PHEX amounts were evaluated by immunoblotting as described previously (17). NEP expression and purification were performed as described previously (36).
(§2) The hydrolysis of the IQFPs, at 37° C., in 10 mM Bit-Tris buffer pH 5.5 (0.35 to 1.0 ml final volume) containing 150 mM NaCl, was continuously followed measuring the fluorescence at γem=420 nm and γex=320 nm in a Hitachi F-2000™ spectrofluorometer. The cuvefte containing the buffer and the substrate was placed in a thermostatically controlled cell compartment for 5 min before the addition of the enzyme and the increase in fluorescence with time was continuously recorded for 5-10 min. The enzyme concentration for initial rate determination was chosen at a level intended to hydrolyze less than 5% of the substrate present. The slope was converted into micromoles of substrate hydrolyzed per min based on a calibration curve obtained from complete hydrolysis of each peptide. The inner-filter effect was corrected using an empirical equation as previously described (43). The kinetic parameters Km and kcat were calculated by the non-linear regression data analysis Grafit program (42). The kcat/Km values were calculated as the ratio of these two determined parameters. The apparent second order rate constant kcat/Km (*kIt/Km) was determined under pseudo first-order conditions, where [S]<<Km. These determinations were performed in two different substrate concentrations and the errors were less than 5% for any obtained value.
(§3) To determine the position of cleavage in peptides of the IQFPs combinatorial libraries, the products resulting from hydrolysis by secPHEX were submitted to N-terminal amino acid sequencing in a PPSQ-23protein sequencer (Shimadzu Tokyo, Japan). The scissile bonds in the IQFPs secPHEX substrates derived from PTHrP107-139, FGF-23and MEPE were determined by amino acid sequencing and by MALDI-TOF™ mass spectrometry (TofSpec-E™, Micromass, Manchester, U.K.) after isolation of the fragments resulting from the hydrolysis by secPHEX by analytical HPLC.
(§4) The assays were performed at 37° C., in 10 mM Bis-Tris buffer pH 5.5, containing 150 mM NaCl. Measurements were made as described under the heading “Experimental Procedures” above. Cleavage sites are indicated as arrows (↓). The standard deviations of the kinetic constants were less than 5%.
(§5) The assays were performed at 37° C., in 10 mM Bis-Tris buffer pH 5.5, containing 150 mM NaCl. Measurements were made as described under the heading “Experimental Procedures” above. Cleavage sites are indicated by arrows (↓). The standard deviations of the kinetic constants were less than 5%.
(§6) The assays were. performed at 37° C., in 10 mM Bis-Tris buffer pH 5.5, containing 150 mM NaCl. Measurements were made as described under the heading “Experimental Procedures” above. Cleavage sites are indicated by arrows (↓). The standard deviations of the kinetic constants were less than 5%.
(§7) The assays were performed at 37° C., in 10 mM Bis-Tris buffer pH 5.5, containing 150 mM NaCl. Measurements were made as described under “Experimental Procedures”. […]

Substrate in series [2]: CC(C)C[C@H](NC(=O)[C@H](Cc1c[nH]cn1)NC(=O)[C@@H](NC(=O)c1ccccc1N)[C@@H](C)O)C(=O)N[C@@H](CC(=O)O)C(=O)N[C@H](C(=O)N[C@@H](CCCCN)C(=O)N[C@@H](CCCCN)C(=O)N[C@@H](CCC(N)=O)C(=O)NCCNc1ccc([N+](=O)[O-])cc1[N+](=O)[O-])[C@@H](C)O
The protocol: as §1, §2, §3, §4, §5, §6, §7

Substrate in series [3]: CC(C)C[C@H](NC(=O)[C@H](Cc1c[nH]c2ccccc12)NC(=O)[C@H](C)NC(=O)c1ccccc1N)C(=O)N[C@@H](CC(=O)O)C(=O)N[C@@H](CO)C(=O)NCC(=O)N[C@H](C(=O)N[C@@H](CCC(N)=O)C(=O)NCCNc1ccc([N+](=O)[O-])cc1[N+](=O)[O-])C(C)C
The protocol: as §1, §2, §3, §4, §5, §6, §7

Substrate in series [4]: CSCC[C@H](NC(=O)[C@H](CCC(=O)O)NC(=O)[C@H](CC(N)=O)NC(=O)c1ccccc1N)C(=O)N[C@@H](CC(=O)O)C(=O)N[C@@H](CO)C(=O)N[C@@H](Cc1ccccc1)C(=O)N[C@@H](CC(N)=O)C(=O)N[C@@H](CCC(N)=O)C(=O)NCCNc1ccc([N+](=O)[O-])cc1[N+](=O)[O-]
As for the experimental part: as §1, §2, §3, §4, §5, §6, §7

One may read the Km as the concentration of substrate that gives half-maximal velocity. Broadly, the kcat is the number of substrate molecules converted per active site and unit of time at saturation. What is called kcat/Km is the second-order rate constant that governs catalysis at low substrate concentration.

B1: human recombinant secPHEX (Homo sapiens) (protein)
chain: SLQAKQEYCLKPECIEAAAAILSKVNLSVDPCDNFFRFACDGWISNNPIPEDMPSYGVYPWLRHNVDLKLKELLEKSISRRRDTEAIQKAKILYSSCMNEKAIEKADAKPLLHILRHSPFRWPVLESNIGPEGVWSERKFSLLQTLATFRGQYSNSVFIRLYVSPDDKASNEHILKLDQATLSLAVREDYLDNSTEAKSYRDALYKFMVDTAVLLGANSSRAEHDMKSVLRLEIKIAEIMIPHENRTSEAMYNKMNISELSAMIPQFDWLGYIKKVIDTRLYPHLKDISPSENVVVRVPQYFKDLFRILGSERKKTIANYLVWRMVYSRIPNLSRRFQYRWLEFSRVIQGTTTLLPQWDKCVNFIESALPYVVGKMFVDVYFQEDKKEMMEELVEGVRWAFIDMLEKENEWMDAGTKRKAKEKARAVLAKVGYPEFIMNDTHVNEDLKAIKFSEADYFGNVLQTRKYLAQSDFFWLRKAVPKTEWFTNPTTVNAFYSASTNQIRFPAGELQKPFFWGTEYPRSLSYGAIGVIVGHEFTHGFDNNGRKYDKNGNLDPWWSTESEEKFKEKTKCMINQYSNYYWKKAGLNVKGKRTLGENIADNGGLREAFRAYRKWINDRRQGLEEPLLPGITFTNNQLFFLSYAHVRCNSYRPEAAREQVQIGAHSPPQFRVNGAISNFEEFQKAFNCPPNSTMNRGMDSCRLW
notes: pure soluble form of PHEX (secPHEX); made in house
Take B1: the Km in series [1] is 22.0 µM; in series [2] it was 15.0 µM; in series [3] it was 1.5 µM; in series [4], 38.0 µM. The kcat in series [1] turned out to be 0.3 s⁻¹; in series [2] it was 0.02 s⁻¹; in series [3] it was 0.04 s⁻¹; in series [4] it was 0.3 s⁻¹. Also, the kcat/Km in series [1] was 13600 M⁻¹ s⁻¹; in series [2], 1300 M⁻¹ s⁻¹; in series [3], 26700 M⁻¹ s⁻¹; in series [4], 7900 M⁻¹ s⁻¹.

Values taken from patent US20060292657A1, “Phex substrates and methods using same” (priority 2003, published 2006).
